Data on 1 molecule can be found in patent publication US20190177382A1 (US Dept. of Health and Human Services, published 2019).

The assay addresses T1, KDR ectodomain-IgG fusion protein (UniProt P35968 20-764, limits assumed).
T1 construct: extracellular domain; also called KDR-Ig ectodomain; not shown: IgG portion of the fusion
Kind of assay: electrochemiluminescent saturation binding; VEGF captured by a non-neutralizing anti-VEGF mAb, KDR-Ig ectodomain titrated, detected with tagged anti-KDR.

T1 sequence (P35968 20-764 limits assumed): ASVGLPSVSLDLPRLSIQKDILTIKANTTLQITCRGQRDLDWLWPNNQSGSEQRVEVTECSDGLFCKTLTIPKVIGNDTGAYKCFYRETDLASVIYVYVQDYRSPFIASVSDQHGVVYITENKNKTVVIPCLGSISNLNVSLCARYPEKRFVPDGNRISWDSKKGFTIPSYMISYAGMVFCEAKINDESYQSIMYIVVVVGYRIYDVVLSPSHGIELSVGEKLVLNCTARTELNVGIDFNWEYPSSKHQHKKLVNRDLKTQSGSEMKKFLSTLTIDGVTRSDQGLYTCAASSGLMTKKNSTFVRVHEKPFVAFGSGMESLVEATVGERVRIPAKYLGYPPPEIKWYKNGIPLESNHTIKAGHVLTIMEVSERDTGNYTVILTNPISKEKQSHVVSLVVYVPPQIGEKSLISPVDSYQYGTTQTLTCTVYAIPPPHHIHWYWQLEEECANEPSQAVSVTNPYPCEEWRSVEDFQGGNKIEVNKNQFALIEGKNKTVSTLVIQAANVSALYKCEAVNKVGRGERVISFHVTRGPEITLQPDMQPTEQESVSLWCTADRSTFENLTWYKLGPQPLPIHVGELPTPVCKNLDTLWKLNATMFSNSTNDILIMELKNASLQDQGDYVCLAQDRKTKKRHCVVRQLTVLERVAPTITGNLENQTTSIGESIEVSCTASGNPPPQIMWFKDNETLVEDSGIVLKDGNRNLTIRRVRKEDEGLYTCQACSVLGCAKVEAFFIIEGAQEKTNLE

B1: VEGF165 3S (human VEGF165 R123E/R124E/R159E) (ligand)
chain: APMAEGGGQNHHEVVKFMDVYQRSYCHPIETLVDIFQEYPDEIEYIFKPSCVPLMRCGGCCNDEGLECVPTEESNITMQIMRIKPHQGQHIGEMSFLQHNKCECRPKKDRARQENPCGPCSEEEKHLFVQDPQTCKCSCKNTDSRCKARQLELNERTCECDKPRR
notes: Secreted into conditioned media by 293/KDR transfectants, made with the native signal peptide; also called VEGF 3S
A word on the Kd: it is the concentration at which binding is half-saturated. Take B1: the dissociation constant (Kd) is approximately 0.019 nM.
